Test results published in US20250361274A1, “PEPTIDE AND PEPTIDE-CONTAINING AGENT” (PEPTIDREAM INC., priority 2022, published 2025).
Numbered stars: 1 amine (or outer) side, 2 acyl side, 3 side chain; on linkers, the order of the positions; unused ones are H or OH. Bridge positions count the residues as written; N and C are the ends. Square brackets hold non-standard residues; d marks the D form. MeKCOpipzaa = N6-(4-(carboxymethyl)piperazine-1-carbonyl)-N2-methyl-L-lysine, CN([C@@H](CCCCNC(=O)N1CCN(CC(=O)[*:3])CC1)C(=O)[*:2])[*:1]; KCOpipzaa = N6-(4-(carboxymethyl)piperazine-1-carbonyl)-L-lysine, O=C(NCCCC[C@H](N[*:1])C(=O)[*:2])N1CCN(CC(=O)[*:3])CC1; 3Pal(6-Ph) = N[C@@H](Cc1ccc(-c2ccccc2)nc1)C(=O)O; Phe(4-COOH) = N[C@@H](Cc1ccc(C(=O)O)cc1)C(=O)O; Pro(trans-4-F) = O=C(O)[C@@H]1C[C@@H](F)CN1; Bip = N[C@@H](Cc1ccc(-c2ccccc2)cc1)C(=O)O; Pro(cis-4-F) = O=C(O)[C@@H]1C[C@H](F)CN1; Phe(4-F) = N[C@@H](Cc1ccc(F)cc1)C(=O)O; Pro(4,4-F2) = O=C(O)[C@@H]1CC(F)(F)CN1; 4Pal = N[C@@H](Cc1ccncc1)C(=O)O; βAla = NCCC(=O)O

Tests used:
BMP4 = target: T1, BMP4 (Homo sapiens, UniProt P12644); experiment: BMP4 signal transduction inhibitory activity: SMAD1 phosphorylation by BMP4 stimulus, AlphaLISA SureFire, A549 cells; format: cell-based; conditions: inhibition of SMAD1 phosphorylation by BMP4 stimulus, A549 cells; peptides of Synthesis 2; classes A-C, ND
T1 sequence (P12644 293-408): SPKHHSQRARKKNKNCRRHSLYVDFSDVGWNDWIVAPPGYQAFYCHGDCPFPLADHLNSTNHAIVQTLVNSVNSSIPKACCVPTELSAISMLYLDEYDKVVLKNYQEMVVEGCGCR

BMP7 = target: T2, BMP7 (Homo sapiens, UniProt P18075); experiment: BMP7 signal transduction inhibitory activity: SMAD1 phosphorylation by BMP7 stimulus, A549 cells; format: cell-based; conditions: inhibition of SMAD1 phosphorylation by BMP7 stimulus, A549 cells; peptides of Synthesis 2; classes A-D, ND
T2 sequence (P18075 293-431): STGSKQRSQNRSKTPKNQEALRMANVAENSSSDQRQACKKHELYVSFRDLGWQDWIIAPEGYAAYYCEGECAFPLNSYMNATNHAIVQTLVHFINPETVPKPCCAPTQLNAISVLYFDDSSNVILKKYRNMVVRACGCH
Outline: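 Cell line A549; stimulus BMP7 10 nM; endpoint pSMAD1. Peptide doses: three concentrations (1–1,000 nM range) or 8 × 1/3 dilutions from 100/1,000 nM.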

| Substance | aLISA BMP4 (BMP4) | aLISA BMP7 (BMP7) |
| --- | --- | --- |
| 79 ({CH2CO}-E[KCOpipzaa]VYVDR[Bip][KCOpipzaa]YP[Bip][Phe(4-F)][Phe(4-COOH)][Phe(4-COOH)]SCG-NH2; thioether N-17; not fully specified) [compound 79] | C (showed an inhibitory activity of less than 50% in 0.2 nM-addition zone and showed an inhibitory activity of 50% or more in 2 nM-addition zone were defined as B or C) | D (showed less than 50% of inhibitory activity in 100 nM-addition zone) |
| 80 ({CH2CO}-E[KCOpipzaa]VYVDR[Bip][KCOpipzaa]YP[Bip][Phe(4-F)][Phe(4-COOH)][4Pal]SCG-NH2; thioether N-17; not fully specified) [compound 80] | A (showed an inhibitory activity of 50% or more in a zone to which the peptide was added to in an amount of 0.2 nM) | C (showed less than 50% of inhibitory activity in 10 nM-addition zone and showed 50% or more of inhibitory activity in 100 nM-addition zone) |
| 81 ({CH2CO}-E[KCOpipzaa]VYVDR[Bip][MeKCOpipzaa]YP[Bip][Phe(4-F)][Phe(4-COOH)][4Pal]SCG-NH2; thioether N-17; not fully specified) [compound 81] | A (showed an inhibitory activity of 50% or more in a zone to which the peptide was added to in an amount of 0.2 nM) | C (showed less than 50% of inhibitory activity in 10 nM-addition zone and showed 50% or more of inhibitory activity in 100 nM-addition zone) |
| 85 ({CH2CO}-ERVYVDR[Bip]SYV[Bip]Y[Phe(4-COOH)][Phe(4-COOH)]SC[βAla][dE]-OH; thioether N-17; not fully specified) [compound 85] | A (showed an inhibitory activity of 50% or more in a zone to which the peptide was added to in an amount of 0.2 nM) | C (showed less than 50% of inhibitory activity in 10 nM-addition zone and showed 50% or more of inhibitory activity in 100 nM-addition zone) |
| 92 ({CH2CO}-EKVYVDK[Bip]YYV[Bip][Phe(4-F)][Phe(4-COOH)][4Pal]SCG-NH2; thioether N-17; not fully specified) [compound 92] | C (showed an inhibitory activity of less than 50% in 0.2 nM-addition zone and showed an inhibitory activity of 50% or more in 2 nM-addition zone were defined as B or C) | C (showed less than 50% of inhibitory activity in 10 nM-addition zone and showed 50% or more of inhibitory activity in 100 nM-addition zone) |
| 94 ({CH2CO}-A[KCOpipzaa]VYV[KCOpipzaa]R[Bip]PYV[Bip]Y[Phe(4-COOH)][Phe(4-COOH)]SC[βAla][dE]-OH; thioether N-17; not fully specified) [compound 94] | A (showed an inhibitory activity of 50% or more in a zone to which the peptide was added to in an amount of 0.2 nM) | C (showed less than 50% of inhibitory activity in 10 nM-addition zone and showed 50% or more of inhibitory activity in 100 nM-addition zone) |
| 95 ({CH2CO}-ERVYVDR[Bip]SYP[Bip]Y[Phe(4-COOH)][Phe(4-COOH)]SC[βAla][dE]-OH; thioether N-17; not fully specified) [compound 95] | A (showed an inhibitory activity of 50% or more in a zone to which the peptide was added to in an amount of 0.2 nM) | C (showed less than 50% of inhibitory activity in 10 nM-addition zone and showed 50% or more of inhibitory activity in 100 nM-addition zone) |
| 96 ({CH2CO}-ERVYVDR[3Pal(6-Ph)]SYP[Bip]Y[Phe(4-COOH)][Phe(4-COOH)]SC[βAla][dE]-OH; thioether N-17; not fully specified) [compound 96] | A (showed an inhibitory activity of 50% or more in a zone to which the peptide was added to in an amount of 0.2 nM) | C (showed less than 50% of inhibitory activity in 10 nM-addition zone and showed 50% or more of inhibitory activity in 100 nM-addition zone) |
| 97 ({CH2CO}-ERVYV[KCOpipzaa]R[Bip]SYP[Bip]Y[Phe(4-COOH)][Phe(4-COOH)]SC[βAla][dE]-OH; thioether N-17; not fully specified) [compound 97] | A (showed an inhibitory activity of 50% or more in a zone to which the peptide was added to in an amount of 0.2 nM) | B (showed less than 50% of inhibitory activity in 1 nM-addition zone and showed 50% or more of inhibitory activity in 10 nM-addition zone) |
| 98 ({CH2CO}-ERVYV[KCOpipzaa]R[3Pal(6-Ph)]SYP[Bip]Y[Phe(4-COOH)][Phe(4-COOH)]SC[βAla][dE]-OH; thioether N-17; not fully specified) [compound 98] | A (showed an inhibitory activity of 50% or more in a zone to which the peptide was added to in an amount of 0.2 nM) | C (showed less than 50% of inhibitory activity in 10 nM-addition zone and showed 50% or more of inhibitory activity in 100 nM-addition zone) |
| 99 ({CH2CO}-E[KCOpipzaa]VYVDR[Bip]SYP[Bip]Y[Phe(4-COOH)][Phe(4-COOH)]SC[βAla][dE]-OH; thioether N-17; not fully specified) [compound 99] | A (showed an inhibitory activity of 50% or more in a zone to which the peptide was added to in an amount of 0.2 nM) | C (showed less than 50% of inhibitory activity in 10 nM-addition zone and showed 50% or more of inhibitory activity in 100 nM-addition zone) |
| 100 ({CH2CO}-E[KCOpipzaa]VYV[KCOpipzaa]R[Bip]SYP[Bip]Y[Phe(4-COOH)][Phe(4-COOH)]SC[βAla][dE]-OH; thioether N-17; not fully specified) [compound 100] | A (showed an inhibitory activity of 50% or more in a zone to which the peptide was added to in an amount of 0.2 nM) | C (showed less than 50% of inhibitory activity in 10 nM-addition zone and showed 50% or more of inhibitory activity in 100 nM-addition zone) |
| 101 ({CH2CO}-E[KCOpipzaa]VYV[KCOpipzaa]R[3Pal(6-Ph)]SYP[Bip]Y[Phe(4-COOH)][Phe(4-COOH)]SC[βAla][dE]-OH; thioether N-17; not fully specified) [compound 101] | A (showed an inhibitory activity of 50% or more in a zone to which the peptide was added to in an amount of 0.2 nM) | C (showed less than 50% of inhibitory activity in 10 nM-addition zone and showed 50% or more of inhibitory activity in 100 nM-addition zone) |
| 102 ({CH2CO}-E[KCOpipzaa]VYV[KCOpipzaa]R[Bip]SYV[Bip]Y[Phe(4-COOH)][Phe(4-COOH)]SC[βAla][dE]-OH; thioether N-17; not fully specified) [compound 102] | C (showed an inhibitory activity of less than 50% in 0.2 nM-addition zone and showed an inhibitory activity of 50% or more in 2 nM-addition zone were defined as B or C) | C (showed less than 50% of inhibitory activity in 10 nM-addition zone and showed 50% or more of inhibitory activity in 100 nM-addition zone) |
| 103 ({CH2CO}-ERV[Phe(4-COOH)]V[KCOpipzaa]R[Bip]SYP[Bip]Y[Phe(4-COOH)][Phe(4-COOH)]SC[βAla][dE]-OH; thioether N-17; not fully specified) [compound 103] | A (showed an inhibitory activity of 50% or more in a zone to which the peptide was added to in an amount of 0.2 nM) | A (showed 50% or more of inhibitory activity in a zone to which the peptide was added in an amount of 1 nM) |
| 109 ({CH2CO}-ERVYVDR[Bip]PY[Pro(cis-4-F)][Bip]Y[Phe(4-COOH)][Phe(4-COOH)]SC[βAla][dE]-OH; thioether N-17; not fully specified) [compound 109] | C (showed an inhibitory activity of less than 50% in 0.2 nM-addition zone and showed an inhibitory activity of 50% or more in 2 nM-addition zone were defined as B or C) | C (showed less than 50% of inhibitory activity in 10 nM-addition zone and showed 50% or more of inhibitory activity in 100 nM-addition zone) |
| 110 ({CH2CO}-ERVYVDR[Bip]PY[Pro(trans-4-F)][Bip]Y[Phe(4-COOH)][Phe(4-COOH)]SC[βAla][dE]-OH; thioether N-17; not fully specified) [compound 110] | A (showed an inhibitory activity of 50% or more in a zone to which the peptide was added to in an amount of 0.2 nM) | B (showed less than 50% of inhibitory activity in 1 nM-addition zone and showed 50% or more of inhibitory activity in 10 nM-addition zone) |
| 111 ({CH2CO}-ERVYVDR[Bip]PY[Pro(4,4-F2)][Bip]Y[Phe(4-COOH)][Phe(4-COOH)]SC[βAla][dE]-OH; thioether N-17; not fully specified) [compound 111] | A (showed an inhibitory activity of 50% or more in a zone to which the peptide was added to in an amount of 0.2 nM) | C (showed less than 50% of inhibitory activity in 10 nM-addition zone and showed 50% or more of inhibitory activity in 100 nM-addition zone) |
